The target of data set [1] is T1, wildtype hamster BiP, N-terminally hexahistidine-tagged (hamster, UniProt G3I8R9 19-654).
T1 construct: BiP (GRP78), hamster; Construct details are in Supplementary file 1; also called wt BiP; wildtype BiP; source: E. coli M15 (pQE10), purified (Ni-NTA); not shown: His6, N-terminal, kept
Put plainly: SEC; wildtype BiP (50 µM) incubated 16 hr with 1 mM peptide in HKM, SEC-3 column; competition of peptides with oligomerisation. As to conditions: both partners purified.

Data set [2] deals with the molecule itself. Put plainly: SEC; purified BiP proteins at 50 µM in HKM buffer (50 mM HEPES-KOH pH 7.4, 150 mM KCl, 10 mM MgCl2), 16 hr at room temperature, no added nucleotide; SEC-3 HPLC column, A230 nm.
Data set [3] deals with the molecule itself. Put plainly: native gel or EMSA; purified BiP proteins (30-50 µM) on a Tris-glycine native gel (4.5% stacking, 7.5% separation), Coomassie stain or immunoblot; with or without ATP (3-5 mM).
For data set [4], the target named is T1, wildtype hamster BiP, N-terminally …. Put plainly: SEC; BiP protein (50 µM) with 1 µM lucifer yellow-labeled tracer (peptide or BiP V461F), 16 hr in HKM; A230 nm and LY fluorescence recorded; with or without SubA (36 ng/µl) before the run. As to conditions: both partners purified.

The source of these data is publication PMC4608358, “Physiological modulation of BiP activity by trans-protomer engagement of the interdomain linker” (eLife, 2015).

Where no end group is shown, it is not given here.

T1 sequence (G3I8R9 19-654): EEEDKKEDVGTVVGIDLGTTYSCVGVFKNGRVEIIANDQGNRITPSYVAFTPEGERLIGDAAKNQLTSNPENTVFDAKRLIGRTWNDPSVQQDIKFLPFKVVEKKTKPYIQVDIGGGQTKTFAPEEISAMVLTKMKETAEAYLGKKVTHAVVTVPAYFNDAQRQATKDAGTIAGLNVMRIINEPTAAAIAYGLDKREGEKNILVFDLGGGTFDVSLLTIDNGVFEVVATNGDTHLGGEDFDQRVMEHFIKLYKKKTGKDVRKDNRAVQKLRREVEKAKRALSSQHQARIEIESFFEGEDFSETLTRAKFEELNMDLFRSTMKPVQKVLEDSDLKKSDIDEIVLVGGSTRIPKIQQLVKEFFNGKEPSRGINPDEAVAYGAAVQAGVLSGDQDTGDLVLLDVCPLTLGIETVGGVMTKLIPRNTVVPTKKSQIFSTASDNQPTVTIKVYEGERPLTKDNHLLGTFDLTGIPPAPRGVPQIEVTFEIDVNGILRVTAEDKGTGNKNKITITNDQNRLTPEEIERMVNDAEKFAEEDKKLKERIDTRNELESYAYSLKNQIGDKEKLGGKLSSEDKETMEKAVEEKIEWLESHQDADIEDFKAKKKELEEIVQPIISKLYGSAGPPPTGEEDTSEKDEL

B1: peptide derived from the interdomain linker of BiP (DTGDLVLLD) (peptide)
peptide: DTGDLVLLD
notes: interdomain linker of BiP (GRP78), hamster; also called Linker Pep; linker peptide
With B1, the binding result in data set [1] is listed as “binds”.

B2: BiP-binding peptide HTFPAVL (peptide)
peptide: HTFPAVL
notes: well-characterized BiP substrate peptide (Marcinowski et al., 2011); also called BiP substrate peptide
Take B2: in data set [1], the binding result is recorded as “binds”.

B3: BiP^lidless, hamster BiP lacking its C-terminal lid (∆554–654) (domain or fragment)
chain: not shown
notes: Construct details are in Supplementary file 1; also called lidless BiP; source: E. coli, purified; not shown: His6, N-terminal, kept
Consider B3, for which the binding result in data set [2] is listed as “binds”.

B4: BiP^G226D, hamster BiP mutant locked in the domain-uncoupled state (natural protein)
chain: not shown
notes: BiP (GRP78), hamster; Construct details are in Supplementary file 1; source: E. coli, purified; not shown: His6, N-terminal, kept
As for B4, in data set [3], the binding result is “binds”.

B5: BiP^T37G, hamster BiP mutant locked in the domain-uncoupled state (natural protein)
chain: not shown
notes: as for B4
Turning to B5, the binding result in data set [3] is given as “binds”.

B6: BiP^T229A, ATPase activity-deficient mutant of hamster BiP (natural protein)
chain: not shown
notes: BiP (GRP78), hamster; Construct details are in Supplementary file 1; source: E. coli M15 (pQE10), purified (Ni-NTA); not shown: His6, N-terminal, kept
B6: the binding result in data set [3] is “binds”.

B7: lucifer yellow-labeled BiP-binding peptide (HTFPAVL-LY) (peptide)
peptide: HTFPAVL-{lucifer yellow}
notes: BiP substrate peptide (Marcinowski et al., 2011), fluorescently labelled; also called Pep-LY
On to B7, for which, in data set [4], the “ratio of fluorescent to quantity signal R^(FLU/A230 nm), peak II (peak I set to 1.00)” value amounted to 0.48 and the “ratio of fluorescent to quantity signal R^(FLU/A230 nm), peak III (peak I set to 1.00)” value amounted to 0.26.
